Laboratory results published in patent US9623039B2, “Treatment and prevention of pathological conditions using iduna related techniques and compositions” (VALTED, LLC, priority 2010, dated 2017).

Key:
[1] = system: primary cortical neurons; test: NMDA excitotoxicity cell death in primary cortical neurons; assay type: cell-based, mouse; settings: NMDA 100 μM for 5 min, Iduna overexpression
Method: Primary Neuronal Culture Preparation: Primary cortical cell cultures were prepared from gestational day 15 mouse embryos as previously described. Experiments were performed at DIV (day in vitro) 14. Under these conditions, neurons represent 90% of the cells in the culture. Mature neurons were washed with control salt solution (CSS) containing 120 mM NaCl, 5.4 mM KCl, 1.8 mM CaCl2, 25 mM Tris-HCl pH 7.4 and 15 mM D-glucose. To induce NMDA-mediated […], 50 μM NMDA and 10 μM glycine in CSS solution was applied to the cells for 5 min, then the cells were washed and re-supplemented with minimum essential medium containing 10% horse serum. […]
Cell Death Assessment: Following exposure of neuronal cultures to the various treatments neuronal survival was quantified and presented as percent of cell death. Percent cell death was determined as the ratio of live-to-dead cells compared with the percent cell death in control wells to account for cell death attributable to mechanical stimulation of the cultures. Quantification of neuronal survival was determined by staining treated cultures with 5 μM Hoechst 33342 and 2 μM propidium iodide (PI) (Invitrogen, Carlsbad, Calif.). […] The numbers of total and dead (PI positive) cells were counted by automated computer assisted software (Axiovision 4.6, Zeiss, Germany). […]

[2] = system: PAR polymer; test: EMSA for PAR binding
Source text: PAR binding is specified by a sequence of approximately 20 amino acids containing N-terminal basic amino acids and a C-terminal region containing alternating hydrophobic and basic amino acids (FIG. 24). Iduna contains a predicted PAR polymer binding sequence within amino acids 144-167 of the WWE domain (FIGS. 1 and 24). The PAR-binding domain was defined by comparing to the consensus sequence for PAR-binding and the known PAR binding domain of Histone 3 (FIG. 24). HEK293 cells were transfected with GFP, GFP-Iduna lacking the WWE domain (GFP-IdunaΔWWE), GFP-Iduna lacking the RF domain (GFP-IdunaARF), and full-length GFP-Iduna, followed by immunoprecipitation with a GFP antibody. […] Only GFP-Iduna-ARF and full-length GFP-Iduna can co-immunoprecipiate PAR binding proteins (FIG. 25). The critical amino acids in the PAR binding domain, 156Y and 157R, were mutated to 156A and 157A in full length Iduna (Iduna-YRAA). […] Similar results are obtained with a biotin-tagged PAR polymer followed by detection with an anti-biotin antibody (FIG. 26). […] Histone H3 is a known PAR binding protein and was used as a positive control for the PAR overlay assay. […] An assay based on electrophorectic mobility shift (EMSA) for PAR binding was developed to monitor PAR polymer binding to Iduna. […]

[3] = system: primary neurons; test: H2O2-induced cell death in primary neurons; assay type: cell-based, mouse; settings: 100 μM H2O2
Method: FIGS. 44 and 45—Iduna protects against peroxide-induced cell death in primary neurons. Primary neuronal cultures were transduced with lentiviruses expressing GFP, GFP-Iduna or GFP-Iduna-YRAA. 4 days following lentiviral transduction, cultures were treated with H2O2 (100 μM or 500 μM) and cell death assessed 24 h later using PI and Hoechst staining.
Cell Death Assessment: Following exposure of neuronal cultures to the various treatments neuronal survival was quantified and presented as percent of cell death. Percent cell death was determined as the ratio of live-to-dead cells compared with the percent cell death in control wells to account for cell death attributable to mechanical stimulation of the cultures. Quantification of neuronal survival was determined by staining treated cultures with 5 μM Hoechst 33342 and 2 μM propidium iodide (PI) (Invitrogen, Carlsbad, Calif.). Culture plates were placed on a mechanized stage of a Zeiss microscope and photomicrographs were collected by a blinded observer. The numbers of total and dead (PI positive) cells were counted by automated computer assisted software (Axiovision 4.6, Zeiss, Germany). The raw counts are presented in an Excel file for generation of percent cell death and statistical analysis. Glial nuclei fluoresce at a lower intensity than neuronal nuclei and were gated out by the software program. […]

B1: Iduna: novel NMDA-induced cell survival protein, PAR-dependent E3 ligase; 359 amino acids (protein)
chain: MEMAGCGEIDHSINMLPTNKKANESCSNTAPSLTVPECAICLQTCVHPVSLPCKHVFCYLCVKGASWLGKRCALCRQEIPEDFLDKPTLLSPEELKAASRGNGEYAWYYEGRNGWWQYDERTSRELEDAFSKGKKNTEMLIAGFLYVADLENMVQYRRNEHGRRRKIKRDIIDIPKKGVAGLRLDCDTNTVNLARESSADGADSGSAQTGASVQLAVPSSTRPLTSVDGQLTSPVTPSPDAGISLEDSFAHLQLSGDSIAERSHRGEGEEDHESPSSGRVPDTSVEETESDASSDSEDAPVVVAQHSLTQQRPLVPNGNQTVADQSDRSGTDRSVAGGGTMSVNVRSRRPDGQCTVIEV
- cell death % [1]: 23.0±1.8%
- PAR polymer mobility shift [2]: retards the mobility shift of PAR polymer
- protection against H2O2 toxicity [3]: protects only against 100 μM H2O2
